# Test results published in patent US20250205329A1.
# Columns and labels:
# Test in all cases: BLI (Gator), antibody on protein A probe, F mutant supernatant held 1 h at 60° C.
# [1] = molecular target: RSV F protein mutant YK001Ag399 (RSV A) (RSV A) (UniProt P11209)
# [2] = molecular target: RSV F protein mutant YK001Ag406 (RSV A) (RSV A) (UniProt P11209)
# [3] = molecular target: RSV F protein mutant YK001Ag402 (RSV A) (UniProt P12568)
# [4] = molecular target: RSV F protein mutant YK001Ag403 (RSV A) (UniProt P12568)
# [5] = molecular target: RSV F protein mutant YK001Ag411 (AVQ93588.1, RSV B) (RSV B)
# [6] = molecular target: RSV F protein mutant YK001Ag404 (RSV A) (RSV A) (UniProt P11209)
# [7] = molecular target: RSV F protein mutant YK001Ag222 (RSV A) (UniProt P12568)
# [8] = molecular target: RSV F protein mutant YK001Ag401 (RSV A) (RSV A) (UniProt P11209)
# [9] = molecular target: RSV F protein mutant YK001Ag400 (RSV A) (UniProt P12568)
# [10] = molecular target: RSV F protein mutant YK001Ag410 (AHV80758, RSV B) (RSV B)
# [11] = molecular target: SC-TM (positive control) RSV F protein
# [12] = molecular target: RSV F protein mutant YK001Ag407 (RSV A) (RSV A) (UniProt P11209)
# [13] = molecular target: DS-CavI (positive control) RSV F protein
substance,measurement,setting,value
monoclonal antibody D25,Activity of antibody D25 after 1 h at 60° C. (%),[1],80.8%
same,Activity of antibody D25 after 1 h at 60° C. (%),[2],60.4%
same,Activity of antibody D25 after 1 h at 60° C. (%),[3],84%
same,Activity of antibody D25 after 1 h at 60° C. (%),[4],89.7%
same,Activity of antibody D25 after 1 h at 60° C. (%),[5],91.4%
same,Activity of antibody D25 after 1 h at 60° C. (%),[6],75.4%
same,Activity of antibody D25 after 1 h at 60° C. (%),[7],5.8%
same,Activity of antibody D25 after 1 h at 60° C. (%),[8],20.8%
same,Activity of antibody D25 after 1 h at 60° C. (%),[9],15.6%
same,Activity of antibody D25 after 1 h at 60° C. (%),[10],88.7%
same,Activity of antibody D25 after 1 h at 60° C. (%),[11],21%
same,Activity of antibody D25 after 1 h at 60° C. (%),[12],77.2%
same,Activity of antibody D25 after 1 h at 60° C. (%),[13],103%
monoclonal antibody AM14,Activity of antibody AM14 after 1 h at 60° C. (%),[1],99.8%
same,Activity of antibody AM14 after 1 h at 60° C. (%),[2],45.5%
same,Activity of antibody AM14 after 1 h at 60° C. (%),[3],28.6%
same,Activity of antibody AM14 after 1 h at 60° C. (%),[4],81%
same,Activity of antibody AM14 after 1 h at 60° C. (%),[5],69.5%
same,Activity of antibody AM14 after 1 h at 60° C. (%),[6],60.9%
same,Activity of antibody AM14 after 1 h at 60° C. (%),[7],1.1%
same,Activity of antibody AM14 after 1 h at 60° C. (%),[8],2.2%
same,Activity of antibody AM14 after 1 h at 60° C. (%),[9],1.4%
same,Activity of antibody AM14 after 1 h at 60° C. (%),[10],67.7%
same,Activity of antibody AM14 after 1 h at 60° C. (%),[11],1.3%
same,Activity of antibody AM14 after 1 h at 60° C. (%),[12],52.6%
same,Activity of antibody AM14 after 1 h at 60° C. (%),[13],9.9%
